Measurements taken from the supplement of paper PMC10065799, “High-throughput profiling of sequence recognition by tyrosine kinases and SH2 domains using bacterial peptide display” (eLife, 2023).

Tests used:
c-Abl (mouse) = experiment: phosphorylation enrichment, bacterial display (enrichment ratio); higher = better substrate or ligand; peptides without Tyr show the background
FGFR1 = FGFR1 (UniProt P11362); experiment: as above
Hck = Hck (UniProt P08631); experiment: as above
AncSZ = experiment: as above
Fyn = Fyn (UniProt P06241); experiment: as above
EPHB2 = EPHB2 (UniProt P29323); experiment: as above
Fer (mouse) = experiment: as above
Jak2 = Jak2 (UniProt O60674); experiment: as above
EPHB1 = EPHB1 (UniProt P54762); experiment: as above
MERTK = MERTK (UniProt Q12866); experiment: as above
c-Src = experiment: as above
Fes = Fes (UniProt P07332); experiment: as above
FGFR3 = FGFR3 (UniProt P22607); experiment: as above
Grb2 SH2 = Grb2 SH2 (UniProt P62993); experiment: SH2 binding enrichment of the phosphorylated peptide, bacterial display (enrichment ratio); higher = better substrate or ligand; peptides without Tyr show the background
SHP2-C SH2 = experiment: as above
c-Src SH2 = experiment: as above
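Throughout, for SH2 binding enrichment of the phosphorylated peptide, bacterial display: peptide library displayed on the E. coli surface as eCPX fusions, selected cells deep-sequenced, score is each peptide's frequency after selection divided by its frequency in the input.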
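Throughout, for phosphorylation enrichment, bacterial display: 11-residue human phosphosite peptides and single-mutation variants displayed on the E. coli surface, counted by deep sequencing, each peptide's frequency after selection divided by its frequency in the unselected input library; frequency after pTyr selection over input frequency; kinase dosed for 20-30% of maximal phosphorylation in three min.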

EPHB2, sequence (P29323 whole entry, looked up): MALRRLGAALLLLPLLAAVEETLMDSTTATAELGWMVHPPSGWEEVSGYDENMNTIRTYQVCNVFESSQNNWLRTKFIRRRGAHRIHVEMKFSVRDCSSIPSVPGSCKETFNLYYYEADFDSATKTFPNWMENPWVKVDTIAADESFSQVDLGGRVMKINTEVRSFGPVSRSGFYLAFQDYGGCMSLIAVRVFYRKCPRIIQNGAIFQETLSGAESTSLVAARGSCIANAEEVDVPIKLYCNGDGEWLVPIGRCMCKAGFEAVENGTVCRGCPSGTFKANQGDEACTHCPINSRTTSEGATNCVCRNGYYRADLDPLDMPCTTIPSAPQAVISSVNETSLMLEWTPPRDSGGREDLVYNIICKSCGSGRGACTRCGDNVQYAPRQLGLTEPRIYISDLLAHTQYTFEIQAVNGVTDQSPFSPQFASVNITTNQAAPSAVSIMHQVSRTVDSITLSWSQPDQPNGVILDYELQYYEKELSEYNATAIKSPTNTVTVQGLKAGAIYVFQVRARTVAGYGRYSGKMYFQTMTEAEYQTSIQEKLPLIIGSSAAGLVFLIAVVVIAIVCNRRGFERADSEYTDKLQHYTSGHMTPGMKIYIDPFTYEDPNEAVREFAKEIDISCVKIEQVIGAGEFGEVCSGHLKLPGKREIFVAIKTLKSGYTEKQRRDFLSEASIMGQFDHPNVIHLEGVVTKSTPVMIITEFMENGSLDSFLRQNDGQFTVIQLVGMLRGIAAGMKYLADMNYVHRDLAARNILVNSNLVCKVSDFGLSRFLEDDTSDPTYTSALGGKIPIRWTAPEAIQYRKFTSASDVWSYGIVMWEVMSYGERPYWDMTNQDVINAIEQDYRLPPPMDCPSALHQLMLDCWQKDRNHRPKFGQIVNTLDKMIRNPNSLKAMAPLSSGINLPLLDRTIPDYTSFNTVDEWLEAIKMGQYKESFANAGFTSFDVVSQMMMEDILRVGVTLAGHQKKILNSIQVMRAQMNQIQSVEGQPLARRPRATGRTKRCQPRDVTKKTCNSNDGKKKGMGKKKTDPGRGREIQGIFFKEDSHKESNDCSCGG
Fyn, sequence (P06241 whole entry, looked up): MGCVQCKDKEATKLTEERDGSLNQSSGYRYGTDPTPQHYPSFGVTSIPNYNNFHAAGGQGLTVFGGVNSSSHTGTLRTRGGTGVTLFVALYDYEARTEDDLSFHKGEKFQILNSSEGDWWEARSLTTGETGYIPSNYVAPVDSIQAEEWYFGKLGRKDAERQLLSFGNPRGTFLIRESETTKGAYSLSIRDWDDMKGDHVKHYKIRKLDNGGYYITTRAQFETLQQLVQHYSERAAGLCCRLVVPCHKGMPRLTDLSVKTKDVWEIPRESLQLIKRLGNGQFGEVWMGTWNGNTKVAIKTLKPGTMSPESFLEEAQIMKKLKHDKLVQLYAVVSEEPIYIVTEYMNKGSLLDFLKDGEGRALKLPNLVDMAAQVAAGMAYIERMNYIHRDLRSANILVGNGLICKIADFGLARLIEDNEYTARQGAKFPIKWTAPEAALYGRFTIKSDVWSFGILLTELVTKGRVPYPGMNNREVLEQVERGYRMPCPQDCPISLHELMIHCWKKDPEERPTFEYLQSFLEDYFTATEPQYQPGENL
Hck, sequence (P08631 whole entry, looked up): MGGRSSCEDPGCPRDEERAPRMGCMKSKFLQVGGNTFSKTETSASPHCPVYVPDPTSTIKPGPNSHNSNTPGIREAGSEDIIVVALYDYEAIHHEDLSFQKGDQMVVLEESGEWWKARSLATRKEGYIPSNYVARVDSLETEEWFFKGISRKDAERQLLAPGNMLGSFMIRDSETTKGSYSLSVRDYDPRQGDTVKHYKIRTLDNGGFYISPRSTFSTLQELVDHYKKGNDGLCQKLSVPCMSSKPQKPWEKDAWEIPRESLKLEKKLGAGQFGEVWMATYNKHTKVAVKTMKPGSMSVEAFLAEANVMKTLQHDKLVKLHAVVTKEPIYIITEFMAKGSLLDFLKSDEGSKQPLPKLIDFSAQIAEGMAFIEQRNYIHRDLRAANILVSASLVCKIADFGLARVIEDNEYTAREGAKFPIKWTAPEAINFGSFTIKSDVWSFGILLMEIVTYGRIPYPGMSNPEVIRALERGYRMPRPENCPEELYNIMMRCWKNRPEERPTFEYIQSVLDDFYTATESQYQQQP
FGFR3, sequence (P22607 whole entry, looked up): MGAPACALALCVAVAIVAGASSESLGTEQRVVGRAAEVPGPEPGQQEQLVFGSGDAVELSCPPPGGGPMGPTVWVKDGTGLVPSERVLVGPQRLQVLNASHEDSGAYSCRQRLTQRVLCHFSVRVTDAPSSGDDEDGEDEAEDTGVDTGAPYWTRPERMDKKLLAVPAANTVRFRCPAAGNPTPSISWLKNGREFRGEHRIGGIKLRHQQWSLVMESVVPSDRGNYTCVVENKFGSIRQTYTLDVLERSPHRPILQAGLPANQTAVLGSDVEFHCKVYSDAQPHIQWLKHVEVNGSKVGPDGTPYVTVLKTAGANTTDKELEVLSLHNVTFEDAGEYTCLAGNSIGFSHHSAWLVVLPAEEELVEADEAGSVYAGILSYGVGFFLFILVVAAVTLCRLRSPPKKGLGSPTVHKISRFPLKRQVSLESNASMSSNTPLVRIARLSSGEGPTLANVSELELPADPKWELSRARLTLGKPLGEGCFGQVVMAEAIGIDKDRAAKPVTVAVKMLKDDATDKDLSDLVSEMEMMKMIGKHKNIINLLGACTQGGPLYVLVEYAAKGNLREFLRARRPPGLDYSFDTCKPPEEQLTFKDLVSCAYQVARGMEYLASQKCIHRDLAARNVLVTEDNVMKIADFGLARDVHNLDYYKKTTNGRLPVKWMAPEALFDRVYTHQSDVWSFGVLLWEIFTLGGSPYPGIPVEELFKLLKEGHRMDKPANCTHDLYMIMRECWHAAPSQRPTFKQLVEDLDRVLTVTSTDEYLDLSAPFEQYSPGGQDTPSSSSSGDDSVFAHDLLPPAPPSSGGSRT
Jak2, sequence (O60674 whole entry, looked up): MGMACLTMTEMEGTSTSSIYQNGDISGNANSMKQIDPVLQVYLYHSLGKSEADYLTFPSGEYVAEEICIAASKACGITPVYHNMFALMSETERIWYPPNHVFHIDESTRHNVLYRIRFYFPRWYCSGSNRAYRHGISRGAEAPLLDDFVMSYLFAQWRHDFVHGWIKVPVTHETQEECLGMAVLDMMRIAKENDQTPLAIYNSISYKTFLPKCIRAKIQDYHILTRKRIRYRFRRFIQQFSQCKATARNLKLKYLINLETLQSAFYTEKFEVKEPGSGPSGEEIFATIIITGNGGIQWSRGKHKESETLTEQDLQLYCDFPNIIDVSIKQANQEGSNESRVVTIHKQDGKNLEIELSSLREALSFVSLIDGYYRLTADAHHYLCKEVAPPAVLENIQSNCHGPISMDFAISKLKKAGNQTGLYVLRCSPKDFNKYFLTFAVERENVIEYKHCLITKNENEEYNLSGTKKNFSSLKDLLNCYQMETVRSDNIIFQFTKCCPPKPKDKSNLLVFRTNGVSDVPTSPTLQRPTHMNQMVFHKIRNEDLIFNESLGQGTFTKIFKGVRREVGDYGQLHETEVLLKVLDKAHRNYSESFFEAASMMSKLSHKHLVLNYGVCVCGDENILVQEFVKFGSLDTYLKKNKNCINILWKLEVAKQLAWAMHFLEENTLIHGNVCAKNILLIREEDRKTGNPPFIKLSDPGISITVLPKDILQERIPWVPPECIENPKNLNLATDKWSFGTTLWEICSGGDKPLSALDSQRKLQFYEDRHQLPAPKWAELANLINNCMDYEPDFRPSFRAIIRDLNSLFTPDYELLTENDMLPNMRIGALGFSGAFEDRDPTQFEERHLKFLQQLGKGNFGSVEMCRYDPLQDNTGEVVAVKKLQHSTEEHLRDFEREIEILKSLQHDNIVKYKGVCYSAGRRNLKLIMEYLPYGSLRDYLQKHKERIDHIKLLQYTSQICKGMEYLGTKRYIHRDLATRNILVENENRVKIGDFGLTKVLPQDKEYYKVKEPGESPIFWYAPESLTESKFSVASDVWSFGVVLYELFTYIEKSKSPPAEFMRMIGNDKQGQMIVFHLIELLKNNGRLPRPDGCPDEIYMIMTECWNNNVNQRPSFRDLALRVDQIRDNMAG
Fes, sequence (P07332 whole entry, looked up): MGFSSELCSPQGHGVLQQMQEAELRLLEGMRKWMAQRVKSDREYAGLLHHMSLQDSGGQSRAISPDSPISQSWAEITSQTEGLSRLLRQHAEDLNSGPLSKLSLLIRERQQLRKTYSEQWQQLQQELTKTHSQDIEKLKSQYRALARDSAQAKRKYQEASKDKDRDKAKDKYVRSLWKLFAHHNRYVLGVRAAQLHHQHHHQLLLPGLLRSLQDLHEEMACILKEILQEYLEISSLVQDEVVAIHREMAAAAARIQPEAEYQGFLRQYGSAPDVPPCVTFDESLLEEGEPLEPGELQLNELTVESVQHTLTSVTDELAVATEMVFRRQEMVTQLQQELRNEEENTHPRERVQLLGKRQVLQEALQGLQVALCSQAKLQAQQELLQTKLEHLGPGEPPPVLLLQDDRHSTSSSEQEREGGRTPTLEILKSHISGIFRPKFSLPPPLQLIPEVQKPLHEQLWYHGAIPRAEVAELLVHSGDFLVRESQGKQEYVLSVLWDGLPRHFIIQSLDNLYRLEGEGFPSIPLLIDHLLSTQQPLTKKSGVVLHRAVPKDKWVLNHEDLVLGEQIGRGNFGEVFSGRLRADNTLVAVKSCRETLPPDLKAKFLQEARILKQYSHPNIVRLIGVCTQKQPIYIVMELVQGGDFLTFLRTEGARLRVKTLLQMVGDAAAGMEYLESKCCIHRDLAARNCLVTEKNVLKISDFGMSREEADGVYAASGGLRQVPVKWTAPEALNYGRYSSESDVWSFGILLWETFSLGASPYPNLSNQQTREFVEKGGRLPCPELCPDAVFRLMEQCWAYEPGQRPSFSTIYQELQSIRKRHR

Sequence	phosphorylation enrichment (c-Abl (mouse))	phosphorylation enrichment (FGFR1)	phosphorylation enrichment (Hck)	phosphorylation enrichment (AncSZ)	phosphorylation enrichment (Fyn)	phosphorylation enrichment (EPHB2)	phosphorylation enrichment (Fer (mouse))	phosphorylation enrichment (Jak2)	phosphorylation enrichment (EPHB1)	phosphorylation enrichment (MERTK)	phosphorylation enrichment (c-Src)	phosphorylation enrichment (Fes)	phosphorylation enrichment (FGFR3)	SH2 binding enrichment (Grb2 SH2)	SH2 binding enrichment (SHP2-C SH2)	SH2 binding enrichment (c-Src SH2)
METKGYHSLPE [NR3C2_Y6]	0.704	0.434	0.377	0.696	0.287	0.367	0.399	0.804	0.48	0.515	0.446	1.01	0.563	0.786	0.475	0.769
MFNPMYALFRT [HUWE1_Y4078]	1.19	0.545	4.67	0.946	4.28	0.693	4.26	0.827	1.42	6.9	5.38	0.905	0.676	1.09	1.1	0.811
MFQVQYNSSVD [LRFN1_Y458_YF]	0.566	0.425	0.436	0.859	0.394	0.432	0.514	0.771	0.486	0.398	0.373	0.86	0.581	0.776	0.548	0.515
MGGSVYFSYPD [HIKESHI_Y55]	0.752	1.49	1.65	1.02	3.16	0.815	0.401	1.09	0.728	1.36	3.42	1.07	1.41	0.978	1.94	0.843
MGSFNYLGFAR [SPTLC2_Y178_YF]	0.521	0.504	0.485	0.63	0.439	0.493	0.431	1.15	0.942	0.443	0.535	0.661	0.603	1.05	1.58	0.59
MGSFNYLGFPR [SPTLC2_Y178_A182P_YF]	0.584	0.566	0.403	0.795	0.44	0.917	0.418	1.68	1.88	0.518	0.615	0.983	0.534	0.862	1.03	0.865
MKGDYYRSLAE [YWHAG_Y131_Y133S]	0.463	0.96	0.427	1.1	0.466	0.508	0.426	1.14	0.422	0.44	0.428	0.738	0.742	0.813	0.625	0.415
MKGDYYRYLAE [YWHAG_Y131]	0.686	8.62	0.779	1.07	0.741	1.02	0.501	3.29	1.09	0.718	0.639	0.89	6.43	0.815	0.568	0.615
MKKQKYGRIIM [HSD17B4_Y143]	0.771	0.517	0.396	0.497	0.443	0.531	0.565	0.998	0.551	0.499	0.422	0.89	0.971	1.91	1.55	1.54
MLEVSYVDRNS [F10_Y384_P383S]	0.554	0.441	0.437	0.651	0.375	0.528	0.439	0.876	0.48	0.37	0.466	0.758	0.519	0.67	0.609	0.355
MPAVTYTPAMR [MEGF10_Y895]	0.455	0.28	0.415	0.481	0.313	0.328	0.313	0.743	0.253	0.336	0.384	0.569	0.425	0.726	0.825	0.477
MSNFACVKREV [SCN1A_Y1694_Y1694C]	0.506	0.486	0.51	0.768	0.449	0.45	0.437	0.674	0.49	0.383	0.446	0.911	0.592	0.88	0.612	0.514
MSRDIYSTDYY [NTRK1_Y676]	0.733	4.81	3.99	1.83	4.75	8.84	1.5	1.01	6.24	9.04	5.12	0.933	3.6	1.07	0.752	0.729
MSRDVYSTDCF [NTRK2_Y702_Y706C_YF]	0.874	0.64	1.14	1	2.71	0.675	0.516	0.855	0.754	3.02	2.4	1.2	0.803	0.894	0.683	0.757
